The results in this text go back to publication PMC314469, “Protein Interaction Networks by Proteome Peptide Scanning” (PLoS Biology, 2004).

First the molecules themselves.
B1: YPL093W 369-382 (peptide)
chain: RDDVKRTPFIPESV
B2: YPR107C 40-53 (peptide)
chain: REGPKSSPRGPLSP
B3: YCR030C 484-497 (peptide)
chain: QSKTKPLPVEPASP
B4: YMR109W 1006-1019 (peptide)
chain: RHSKKPAPPPPGMQ
B5: YBL081W 84-97 (peptide)
chain: QSINRSIPSAPYGA
B6: YNL317W 375-388 (peptide)
chain: RFWTRARPIDPNAY
B7: YDR416W 606-619 (peptide)
chain: QVYEKTIPLFPPEI
B8: YLR095C 762-775 (peptide)
chain: QTGSKTVPQAPQAP
B9: YBL016W 257-270 (peptide)
chain: REYIKSLPMYPAAP
B10: YBR200W 345-358 (peptide)
chain: QWSKRIMPYIPGPV
B11: YMR031W-A 89-102 (peptide)
chain: RFSSRRAPIAPSGK
B12: YMR211W 94-107 (peptide)
chain: QTVIKTHPRIPKSE
B13: YGR255C 239-252 (peptide)
chain: RGWQRFLPTGPIAH
B14: YBR079C 874-887 (peptide)
chain: RAGNREPPSTPSTL

In one experiment the target is T1, Boi1 SH3 (BOI1_YEAST), P38041.
T1 chain: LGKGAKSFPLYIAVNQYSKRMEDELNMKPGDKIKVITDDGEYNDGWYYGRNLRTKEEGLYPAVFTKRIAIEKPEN
In words: SPOT array.
On to B1, for which the normalised SPOT signal, Boehringer light units (BLU); mean over the file's lines of this peptide was 0.

The molecule B2 yielded a normalised SPOT signal, Boehringer light units (BLU); mean over the file's lines of this peptide of 3920.

Turning to B3, the normalised SPOT signal, Boehringer light units (BLU); mean over the file's lines of this peptide amounted to 80.3.

Molecule B4 showed a normalised SPOT signal, Boehringer light units (BLU); mean over the file's lines of this peptide of 341.

B5 yielded a normalised SPOT signal, Boehringer light units (BLU); mean over the file's lines of this peptide of 37.4.

Consider B6, for which the normalised SPOT signal, Boehringer light units (BLU); mean over the file's lines of this peptide is 487.

Regarding B7, the normalised SPOT signal, Boehringer light units (BLU); mean over the file's lines of this peptide is 11.

B8 registered a normalised SPOT signal, Boehringer light units (BLU); mean over the file's lines of this peptide of 45.3.

For B9, the normalised SPOT signal, Boehringer light units (BLU); mean over the file's lines of this peptide was 150.

Consider B10, for which the normalised SPOT signal, Boehringer light units (BLU); mean over the file's lines of this peptide came to 123.

On to B11, for which the normalised SPOT signal, Boehringer light units (BLU); mean over the file's lines of this peptide was found to be 2030.

In turn, B12 gave a normalised SPOT signal, Boehringer light units (BLU); mean over the file's lines of this peptide of 213.

Turning to B13, the normalised SPOT signal, Boehringer light units (BLU); mean over the file's lines of this peptide was 95.9.

In turn, B14 had a normalised SPOT signal, Boehringer light units (BLU); mean over the file's lines of this peptide of 705.

The target in another experiment is T2, Yfr024 SH3 (LSB3_YEAST), P43603.
T2 chain: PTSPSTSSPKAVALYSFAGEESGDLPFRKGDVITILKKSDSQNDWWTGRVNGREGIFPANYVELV
Briefly: SPOT array.
Regarding B1, the normalised SPOT signal, Boehringer light units (BLU); mean over the file's lines of this peptide amounted to 92.

B2 returned a normalised SPOT signal, Boehringer light units (BLU); mean over the file's lines of this peptide of 184.

As to B3, the normalised SPOT signal, Boehringer light units (BLU); mean over the file's lines of this peptide came out at 64.3.

For B4, the normalised SPOT signal, Boehringer light units (BLU); mean over the file's lines of this peptide was determined as 304.

Regarding B5, the normalised SPOT signal, Boehringer light units (BLU); mean over the file's lines of this peptide was 178.

As to B6, the normalised SPOT signal, Boehringer light units (BLU); mean over the file's lines of this peptide was determined as 4260.

B7 yielded a normalised SPOT signal, Boehringer light units (BLU); mean over the file's lines of this peptide of 9.3.

As to B8, the normalised SPOT signal, Boehringer light units (BLU); mean over the file's lines of this peptide amounted to 6.6.

For B9, the normalised SPOT signal, Boehringer light units (BLU); mean over the file's lines of this peptide turned out to be 102.

Molecule B10 displayed a normalised SPOT signal, Boehringer light units (BLU); mean over the file's lines of this peptide of 1820.

On to B11, for which the normalised SPOT signal, Boehringer light units (BLU); mean over the file's lines of this peptide is 2420.

B12 registered a normalised SPOT signal, Boehringer light units (BLU); mean over the file's lines of this peptide of 134.

With B13, the normalised SPOT signal, Boehringer light units (BLU); mean over the file's lines of this peptide is 2080.

For the molecule B14, the normalised SPOT signal, Boehringer light units (BLU); mean over the file's lines of this peptide stood at 212.

For a further experiment, the target named is T3, Boi2 SH3 (BOI2_YEAST), P39969.
T3 chain: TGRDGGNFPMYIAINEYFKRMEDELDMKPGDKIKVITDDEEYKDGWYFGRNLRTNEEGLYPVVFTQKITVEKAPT
In words: SPOT array.
In turn, B1 registered a normalised SPOT signal, Boehringer light units (BLU); mean over the file's lines of this peptide of 0.

On to B2, for which the normalised SPOT signal, Boehringer light units (BLU); mean over the file's lines of this peptide came out at 11.9.

Molecule B3 yielded a normalised SPOT signal, Boehringer light units (BLU); mean over the file's lines of this peptide of 5.9.

On to B4, for which the normalised SPOT signal, Boehringer light units (BLU); mean over the file's lines of this peptide was 22.2.

B5 displayed a normalised SPOT signal, Boehringer light units (BLU); mean over the file's lines of this peptide of 122.

In turn, B6 came in with a normalised SPOT signal, Boehringer light units (BLU); mean over the file's lines of this peptide of 1230.

Molecule B7 yielded a normalised SPOT signal, Boehringer light units (BLU); mean over the file's lines of this peptide of 3.6.

B8 came in with a normalised SPOT signal, Boehringer light units (BLU); mean over the file's lines of this peptide of 17.8.

B9 came in with a normalised SPOT signal, Boehringer light units (BLU); mean over the file's lines of this peptide of 83.3.

B10: the normalised SPOT signal, Boehringer light units (BLU); mean over the file's lines of this peptide was found to be 145.

For the molecule B11, the normalised SPOT signal, Boehringer light units (BLU); mean over the file's lines of this peptide was found to be 54.1.

As for B12, the normalised SPOT signal, Boehringer light units (BLU); mean over the file's lines of this peptide stood at 17.1.

Take B13: the normalised SPOT signal, Boehringer light units (BLU); mean over the file's lines of this peptide worked out at 120.

Take B14: the normalised SPOT signal, Boehringer light units (BLU); mean over the file's lines of this peptide was found to be 18.7.

The next experiment deals with T4, Myo5 SH3 (MYO5_YEAST), Q04439.
T4 chain: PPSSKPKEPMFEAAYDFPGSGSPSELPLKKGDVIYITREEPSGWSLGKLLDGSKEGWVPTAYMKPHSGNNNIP
In words: SPOT array.
B1 registered a normalised SPOT signal, Boehringer light units (BLU); mean over the file's lines of this peptide of 171.

Molecule B2 yielded a normalised SPOT signal, Boehringer light units (BLU); mean over the file's lines of this peptide of 188.

As for B3, the normalised SPOT signal, Boehringer light units (BLU); mean over the file's lines of this peptide is 122.

For B4, the normalised SPOT signal, Boehringer light units (BLU); mean over the file's lines of this peptide was found to be 1940.

Regarding B5, the normalised SPOT signal, Boehringer light units (BLU); mean over the file's lines of this peptide came to 208.

B6 gave a normalised SPOT signal, Boehringer light units (BLU); mean over the file's lines of this peptide of 279.

The molecule B7 gave a normalised SPOT signal, Boehringer light units (BLU); mean over the file's lines of this peptide of 153.

In the case of B8, the normalised SPOT signal, Boehringer light units (BLU); mean over the file's lines of this peptide is 62.9.

Consider B9, for which the normalised SPOT signal, Boehringer light units (BLU); mean over the file's lines of this peptide stood at 70.4.

In turn, B10 came in with a normalised SPOT signal, Boehringer light units (BLU); mean over the file's lines of this peptide of 296.

On to B11, for which the normalised SPOT signal, Boehringer light units (BLU); mean over the file's lines of this peptide was 564.

In turn, B12 displayed a normalised SPOT signal, Boehringer light units (BLU); mean over the file's lines of this peptide of 186.

With B13, the normalised SPOT signal, Boehringer light units (BLU); mean over the file's lines of this peptide amounted to 802.

Turning to B14, the normalised SPOT signal, Boehringer light units (BLU); mean over the file's lines of this peptide is 274.

The target of a further experiment is T5, Rvs167 SH3 (RV167_YEAST), P39743.
T5 chain: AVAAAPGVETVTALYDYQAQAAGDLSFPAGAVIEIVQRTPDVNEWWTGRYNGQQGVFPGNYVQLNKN
Briefly: SPOT array.
For the molecule B1, the normalised SPOT signal, Boehringer light units (BLU); mean over the file's lines of this peptide came to 86.7.

The molecule B2 displayed a normalised SPOT signal, Boehringer light units (BLU); mean over the file's lines of this peptide of 30.2.

B3 returned a normalised SPOT signal, Boehringer light units (BLU); mean over the file's lines of this peptide of 90.1.

B4 yielded a normalised SPOT signal, Boehringer light units (BLU); mean over the file's lines of this peptide of 56.3.

In turn, B5 came in with a normalised SPOT signal, Boehringer light units (BLU); mean over the file's lines of this peptide of 89.

In turn, B6 returned a normalised SPOT signal, Boehringer light units (BLU); mean over the file's lines of this peptide of 1610.

In turn, B7 returned a normalised SPOT signal, Boehringer light units (BLU); mean over the file's lines of this peptide of 22.8.

Regarding B8, the normalised SPOT signal, Boehringer light units (BLU); mean over the file's lines of this peptide worked out at 56.5.

B9 registered a normalised SPOT signal, Boehringer light units (BLU); mean over the file's lines of this peptide of 101.

Take B10: the normalised SPOT signal, Boehringer light units (BLU); mean over the file's lines of this peptide stood at 140.

Molecule B11 displayed a normalised SPOT signal, Boehringer light units (BLU); mean over the file's lines of this peptide of 774.

B12 showed a normalised SPOT signal, Boehringer light units (BLU); mean over the file's lines of this peptide of 9.1.

In the case of B13, the normalised SPOT signal, Boehringer light units (BLU); mean over the file's lines of this peptide amounted to 562.

B14 came in with a normalised SPOT signal, Boehringer light units (BLU); mean over the file's lines of this peptide of 77.6.

For a further experiment, the target named is Sho1 SH3 (SHO1_YEAST), P40073. Briefly: SPOT array.
Chain of Sho1 SH3 (SHO1_YEAST), P40073 (P40073 295-366): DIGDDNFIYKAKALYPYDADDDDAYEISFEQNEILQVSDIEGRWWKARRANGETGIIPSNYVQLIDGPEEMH
Turning to B1, the normalised SPOT signal, Boehringer light units (BLU); mean over the file's lines of this peptide was 45.2.

In turn, B2 yielded a normalised SPOT signal, Boehringer light units (BLU); mean over the file's lines of this peptide of 27.8.

B3 returned a normalised SPOT signal, Boehringer light units (BLU); mean over the file's lines of this peptide of 9780.

Consider B4, for which the normalised SPOT signal, Boehringer light units (BLU); mean over the file's lines of this peptide was 175.

Regarding B5, the normalised SPOT signal, Boehringer light units (BLU); mean over the file's lines of this peptide is 44.4.

As to B6, the normalised SPOT signal, Boehringer light units (BLU); mean over the file's lines of this peptide was 177.

In turn, B7 came in with a normalised SPOT signal, Boehringer light units (BLU); mean over the file's lines of this peptide of 31.6.

Molecule B8 displayed a normalised SPOT signal, Boehringer light units (BLU); mean over the file's lines of this peptide of 37.7.

Molecule B9 displayed a normalised SPOT signal, Boehringer light units (BLU); mean over the file's lines of this peptide of 5160.

B10 yielded a normalised SPOT signal, Boehringer light units (BLU); mean over the file's lines of this peptide of 230.

On to B11, for which the normalised SPOT signal, Boehringer light units (BLU); mean over the file's lines of this peptide turned out to be 124.

Take B12: the normalised SPOT signal, Boehringer light units (BLU); mean over the file's lines of this peptide was 67.

For B13, the normalised SPOT signal, Boehringer light units (BLU); mean over the file's lines of this peptide amounted to 479.

In turn, B14 had a normalised SPOT signal, Boehringer light units (BLU); mean over the file's lines of this peptide of 135.

In another experiment the target is T6, Yhr016c SH3 (YSC84_YEAST), P32793.
T6 chain: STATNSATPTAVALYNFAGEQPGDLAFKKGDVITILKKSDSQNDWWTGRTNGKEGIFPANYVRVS
In words: SPOT array.
Turning to B1, the normalised SPOT signal, Boehringer light units (BLU); mean over the file's lines of this peptide was 0.

The molecule B2 showed a normalised SPOT signal, Boehringer light units (BLU); mean over the file's lines of this peptide of 36.3.

Molecule B3 showed a normalised SPOT signal, Boehringer light units (BLU); mean over the file's lines of this peptide of 65.4.

In the case of B4, the normalised SPOT signal, Boehringer light units (BLU); mean over the file's lines of this peptide is 17.7.

On to B5, for which the normalised SPOT signal, Boehringer light units (BLU); mean over the file's lines of this peptide was 42.2.

With B6, the normalised SPOT signal, Boehringer light units (BLU); mean over the file's lines of this peptide was found to be 970.

As to B7, the normalised SPOT signal, Boehringer light units (BLU); mean over the file's lines of this peptide amounted to 5.4.

As for B8, the normalised SPOT signal, Boehringer light units (BLU); mean over the file's lines of this peptide turned out to be 28.7.

Take B9: the normalised SPOT signal, Boehringer light units (BLU); mean over the file's lines of this peptide is 48.

In turn, B10 showed a normalised SPOT signal, Boehringer light units (BLU); mean over the file's lines of this peptide of 109.

With B11, the normalised SPOT signal, Boehringer light units (BLU); mean over the file's lines of this peptide was found to be 184.

The molecule B12 registered a normalised SPOT signal, Boehringer light units (BLU); mean over the file's lines of this peptide of 63.7.

B13 showed a normalised SPOT signal, Boehringer light units (BLU); mean over the file's lines of this peptide of 597.

B14 displayed a normalised SPOT signal, Boehringer light units (BLU); mean over the file's lines of this peptide of 31.9.
